Drawing on paper PMC5350102, this text covers Kd and Ki for 4 substances.

Like-named read-outs stand apart in the source and are kept apart here.

One assay concerns the target GST-nNOS[1–155] (human) (UniProt P29475). The assay can be described thus: pull-down; solid-phase no-wash binding assay: 5 μl beads bound to 1 μg GST-fused nNOS protein (or GST for background) rotated with His-TAT-NOS1AP peptides for 1 h at 4°C; unbound removed by centrifugation in filter plates, no wash; bound peptide quantified by fluorescent immunoblot; GST background subtracted; 1-site quadratic fit.

Assay [1] addresses nNOS (UniProt P29475). Particulars: cited from earlier work.
A further assay addresses His-nNOS[1–155] (human) (UniProt P29475). Nature of the assay: fluorescence polarisation; competition FP: 1 μM F-GDLV, 4 μM His-nNOS(1–155), increasing competitor; approximate Kc (dissociation constant of the competitor, affinity for the nNOS PDZ pocket) from the single-site competition formula. A general note: Fluorescence polarisation rises when a labelled molecule tumbles more slowly, as on binding a larger partner.

The target of assay [2] is nNOS (UniProt P29475). Nature of the assay: solid-phase no-wash assay. The conditions noted are these: cited from earlier work.

For “His-TAT-NOS1AP[400–503] F431A, denatured (from UniProt O75052 400-503) (domain or fragment)”, in the assay with GST-nNOS[1–155] (human), the Kd (as a rule, the constant that tells how readily two partners part at equilibrium) came out at 100 µM. Consider NOS1AP-9C, for which, in the assay with nNOS [1], the Kd is over 600 µM. Turning to “NOS1AP[400–503] F431A cleaved from GST (from UniProt O75052 400-503) (domain or fragment)”, in the assay with His-nNOS[1–155] (human), the Ki – broadly, the equilibrium dissociation constant of an inhibitor or competing ligand from its target – is over 10 µM.

On to “TAT-NOS1AP 400-506 (from UniProt O75052)”, for which the Kd in the assay with nNOS [2] is 0.75 µM.
